Among the data in the RNAGym collection of RNA variant scans (doi:10.7554/elife.80360) are self-cleavage values, retold here.

First the molecules themselves.
B1: HDV Ribozyme (parent)
chain: GGCCGGCAUGGUCCCAGCCUCCUCGCUGGCGCCGGCUGGGCAACAUUCCGAGGGGACCGUCCCCUCGGUAAUGGCGAAUGGGACCCA

The variants in the data set derive from B1. Kind of data set: self-cleavage, relative activity (ratio to wild type); higher = more cleavage; co-transcriptional.
Regarding GGCCGGCAUGGUCCCAUCCUCCUCGCUGGCGCCGGCUGGGCAACAUUCCGAGGGGACCGUCCCCACGGUAAUGGCGAAUGGGACCCA, the self-cleavage was 0.415.

On to GGCCGGCAUGGUCCCACCCUCCUCGCUGGCGCCGGCUGCGCAACAUUCCGAGGGGACCGUCCCCUCGGUAAUGGCGAAUGGGACCCA, for which the self-cleavage was 0.0462. The same measure for GGCCGGCAUGGUCACAGCCUCCUCGCUGGCGCCGGCUGGGCAUCAUUCCGAGGGGACCGUCCCCUCGGUAAUGGCGAAUGGGACCCA: 0.145; for GGCCGGCAUGGUCCCAGCCUCAUCGCUGGCGCCGGCUGGGCAACAUUCCGAGGGGACGGUCCCCUCGGUAAUGGCGAAUGGGACCCA: 0.38. With GGCCGGCAUGGUCCCAGCCUCCUCGCUGGCGCCGGCUGGGCAACAUUCCGAGGGGACCGUCCCCUCGGUAAUGGCGAAAAGGACCCA, the self-cleavage was found to be 0.234. Take GGCCGGCAUGGUCCCAGCCUCCUCGCUGGCGCCGGCUGGGCAAAAUUCGGAGGGGACCGUCCCCUCGGUAAUGGCGAAUGGGACCCA: the self-cleavage came out at 0.511. To GGCCGGCAUGGUCCCAGCCACCUCGCUGGCGCCGGCUUGGCAACAUUCCGAGGGGACCGUCCCCUCGGUAAUGGCGAAUGGGACCCA belongs 0.122; to GGCCGGCAUGGUCCCAGCCUCCUCGCUGGCGCCGGCUGGGCAACAUUACGAGGGGACCGUCCCCUCGGUAAAGGCGAAUGGGACCCA, 0.456; to GGCCGGCAUGGUCCCAGCCUCCUCGCUGGCGCCGGCUCGGCAACAUUCCGAGGGGACCGUCCCCUCGGUAAUGGCGAAUAGGACCCA, 0.131. As to GGCCGGCAUGGUCCAAGCCUCCUCGCUGGCGCCGGCUGGGCAACAUUCCGAGGGGACCGUCCCCUGGGUAAUGGCGAAUGGGACCCA, the self-cleavage amounted to 0.688.

Turning to GGCCGGCAUGGUCCCAGCGUCCUCGCUGGCGCCGGCUGAGCAACAUUCCGAGGGGACCGUCCCCUCGGUAAUGGCGAAUGGGACCCA, the self-cleavage worked out at 0.032.

Turning to GGCCGGCAUGGUCCCAUCCUCCUCGCUGGCGCCGGCUGGGCAACAUUCCGAGGGGACCGUCCCCUGGGUAAUGGCGAAUGGGACCCA, the self-cleavage is 0.464. To GGCCGGCAUGGUCCCAGCCUCCUCGCUGGCGCCGGCUGGGCAACAUUCCGAGGGGACCCUCCCCUCGGUAAUGGCGCAUGGGACCCA belongs 0.101; to GGCCGGCAUGGUCCCAGCCUCCUCGCUGGCGCCGGCUGGGCCACAUUCCGAGGGGACCGUCCCCUCGGAAAUGGCGAAUGGGACCCA, 0.156. The same measure for GGCCGGCAUGGUCCCAGCCUCCUCGCUGGCGCCGGCUGGGCAACAUUCAGAGAGGACCGUCCCCUCGGUAAUGGCGAAUGGGACCCA: 0.816; for GGCCGGCAUGCUCCCAGCCUCCUCGCUGGCGCCGGCUGGGCAACAUUCCGAGGGGACCGUCCCCUCGGUAAUGGCGGAUGGGACCCA: 0.138.

Consider GGCCGGCAUGGUCCCAGCCUCCUCGCUGGCGCCGGCUGGGCAACAUUCCGAGGGGACCGUCCCUUGGGUAAUGGCGAAUGGGACCCA, for which the self-cleavage was 0.748.

On to GGCCGGCAUGGUCCCAGCCUCCUCGCUGGCGUCGGCUGGGCAACAUUCCGAGGGGACCGUACCCUCGGUAAUGGCGAAUGGGACCCA, for which the self-cleavage came to 0.841.

For the variant GGCCGGCAUGGUCCCAGCCUCCUCGCUGGCGCCGGCUGGGCAACAUUCCGAGGGGACUGUCCCCUCGGUAAUGGCGAAUGGGACCGA, the self-cleavage came to 0.895. The same measure for GGCCGGCAUGGUCUCAGCCUCCUCGCUGGCGCAGGCUGGGCAACAUUCCGAGGGGACCGUCCCCUCGGUAAUGGCGAAUGGGACCCA: 0.201; for GGCCGGCAUGGUCCCAGCCUCCUCGGUGGCGCCGACUGGGCAACAUUCCGAGGGGACCGUCCCCUCGGUAAUGGCGAAUGGGACCCA: 0.326. As for GGCCGGCUUGGUCCCAGCCUCCUCGCUGGCGCCGGCUGGGCAACACUCCGAGGGGACCGUCCCCUCGGUAAUGGCGAAUGGGACCCA, the self-cleavage came out at 0.554.

GGCCGGAAUGGUCCCAGCCUCCUCGCUGGCGCCGGCUGGGCAACAUCCCGAGGGGACCGUCCCCUCGGUAAUGGCGAAUGGGACCCA: the self-cleavage was 0.277. GGCCGGCAUGGUCCCAGCAUCCUCGCUGGCGCCGGCUGGGCAACAUUCCGAGGGGACCGUCCCCUCGGAAAUGGCGAAUGGGACCCA: the self-cleavage turned out to be 0.143. As for GGCCGGCAUGGUCCCAGCCUCUUCGCUGGCGCCGGCUGGGCAACAUUCCGAGGGGACCGUCCCCUCGGUAUUGGCGAAUGGGACCCA, the self-cleavage worked out at 0.587. The same measure for GGCCGGCAUGGUCCCAGCCUCCUCGCUGGCGCCGGCUGGGCAACAUUCCGGGGGGACCGUCGCCUCGGUAAUGGCGAAUGGGACCCA: 0.739. The same measure for GGCCGGCAUGGUCCCAGCCUCCUCGCUGGCGCCGUCUGGGCAACAUUCCGAGGGGACCGUCCCCUCGGUAAUUGCGAAUGGGACCCA: 0.19; for GGCCGGCAUGGUCCCAGCCUCCUCGCUGGCGCCGGCUGGGCAACAUUCCGAGGGGACCGUCCCCUCGGUAAUGGCGAACCGGACCCA: 0.208.

As to GGCCGGCAUGGUCCCAGCCUCCUCGCUGGCGCCGUCUGGGCAACAUUCCGAGGGGACCGUCCCCUCGGUAAUGGAGAAUGGGACCCA, the self-cleavage stood at 0.138. As for GGCCGACAUGGUCCCAGCCUCCUCGCUGGCGCCGGCUGGGCAACAUUCCGAGGGGACCGUCCCCUCGCUAAUGGCGAAUGGGACCCA, the self-cleavage was found to be 0.604. To GGCCGGCAUGGUCCCAGCCUCCUCGCUGGCUCGGGCUGGGCAACAUUCCGAGGGGACCGUCCCCUCGGUAAUGGCGAAUGGGACCCA belongs 0.0639; to GGCCGGCCUGGUCCCAGCCUCCUCGCUGGCGCCGGCUGGGCAACAUACCGAGGGGACCGUCCCCUCGGUAAUGGCGAAUGGGACCCA, 0.519; to GGCCGGCAUGGUCCCAACCUCCUCGCUGGCGCCGGCUGGGCAACAUUCCGAGGGGACCGUCCCCUCGGUAAUGGCGAAUGGCACCCA, 0.166. The same measure for GGCCCGCAUGGUCCCAGCCUCCUCGCUGGCGCCGGCUGGGCAACAUUCCGAGGGGACCGUCCCCUAGGUAAUGGCGAAUGGGACCCA: 0.172; for GGCAGGCAUGGUCCCAGCCUCCUCGCUGGCGCCGGCUGGGCAACAUUCCUAGGGGACCGUCCCCUCGGUAAUGGCGAAUGGGACCCA: 0.372; for GGCCGGCUUGGUCCCAGCCUCUUCGCUGGCGCCGGCUGGGCAACAUUCCGAGGGGACCGUCCCCUCGGUAAUGGCGAAUGGGACCCA: 0.598. To GGCCGGCAUGGUCCCAGCCUCCUCGCUGGCGCCGGCUGGGCAAAAUUCCGAGGGGACCGUCCCCUCGGUAAUUGCGAAUGGGACCCA belongs 0.397. Turning to GGCCGGCAUGGUCCCAGCCUCAUCGCUGGCGCCGGCUGGGAAACAUUCCGAGGGGACCGUCCCCUCGGUAAUGGCGAAUGGGACCCA, the self-cleavage came out at 0.475.

As to GGCCGGCAUGGUCCCAGCCUCCUCGCUGGCGCCGGCUGGGCAACAUUCCGAGGGGACCGUCCCCUCGGUAAUGGCGAGUGGCACCCA, the self-cleavage was 0.0519.

In the case of GGCCAGCAUGGUCCCAGCCUCCCCGCUGGCGCCGGCUGGGCAACAUUCCGAGGGGACCGUCCCCUCGGUAAUGGCGAAUGGGACCCA, the self-cleavage is 0.0573. To GGCCGGCAUGGUCCCAGCCUCCUCGCUGGCGCCGGCUGGGCAAGAUUCCGAGGGGACCGUCCCCUCGGUCAUGGCGAAUGGGACCCA belongs 0.831.

For GGCCGGCGCGGUCCCAGCCUCCUCGCUGGCGCCGGCUGGGCAACAUUCCGAGGGGACCGUCCCCUCGGUAAUGGCGAAUGGGACCCA, the self-cleavage is 1.11. The same measure for GGCCGGCAUGGUCCCAGCCUCCUCGCUGGCGCCGGGUGGGCAACAUUCCGAGGGGACCGUCGCCUCGGUAAUGGCGAAUGGGACCCA: 0.142; for GGCCGGCAUGGUCCCAGCCUCCUCGCUGGCGCCGGCUGUGCAAUAUUCCGAGGGGACCGUCCCCUCGGUAAUGGCGAAUGGGACCCA: 0.211; for UGCCGGCAUGGUCCCAGCCUCCUCGCUGGCGCCGGCUGGGCAACAUUCCGAGGGGACCGUCCCCUCGGUAAUGACGAAUGGGACCCA: 0.288. For the variant GGCCGGCAUGGUCCCAGCCACCUCGCUGGCGCCGGCUGGGCAAGAUUCCGAGGGGACCGUCCCCUCGGUAAUGGCGAAUGGGACCCA, the self-cleavage was 0.111.

Take CGCCGGCAUGGUCCCAGCCUCCUCGCUGGCGCCGGCUGGGCAACAUUCCGAGGGGACCGUCCCCUCGGUAAUGCCGAAUGGGACCCA: the self-cleavage is 0. To GGCCGGCAUGGUCCCAGCCUCCUCGCUGGCGCCGGCUGGGCAACAUUCCGAGCGGACCGUCCCCUAGGUAAUGGCGAAUGGGACCCA belongs 0.73; to GGCCGGCAUGGUCCCAGCCUCCUCGCUGUCGCCGGCUGGGCAACAUUCCGAGGGGACCGUCCCCCCGGUAAUGGCGAAUGGGACCCA, 0.173. To GGACGGCAUGGUCCCAGCCUCCUCGCUGGCGCCGUCUGGGCAACAUUCCGAGGGGACCGUCCCCUCGGUAAUGGCGAAUGGGACCCA belongs 1.14; to GGCCGGCAUGGUCCCAGACUCCUCGCUGGCGCCGGCUGGGCAUCAUUCCGAGGGGACCGUCCCCUCGGUAAUGGCGAAUGGGACCCA, 0.0339; to GGCCGGUAUGGUCCCAGCCUCCUCGCUGGCGCCGGCUGGGCAACAUUCCGAGGGGACCGUCCCCUCGGUAGUGGCGAAUGGGACCCA, 0.931. To GGCCGGCAUGGUCCCAGCCUCCUCGCUGGCGCCGGCUGGGGAACAUUCCGAGGGGACCGUCCCCUCGGUAAUGGCGAAUGGGACCCA belongs 0.798; to GGCCGGCAUGGUCCCUGCCUCCUCGCUGGCGCCGGCUGGGCAACAUUCCGAGGGGACCGUCCCCUCGGUAAUGGCGAAUGGUACCCA, 1.06; to GGCCGGCAUGGUCCCAGCCUCCUCGCUGGCGCCGGCUGGGCAACAUUCCGAGGGGACCGUCCCCUCGGGAAUGGCGCAUGGGACCCA, 0.369.

Regarding GGCCGGCAUGGUCCCAGCCUCCUCGUUGGCGCCGGCUGGGCAAAAUUCCGAGGGGACCGUCCCCUCGGUAAUGGCGAAUGGGACCCA, the self-cleavage stood at 1.03. The same measure for GGCCGGCAUGGUCCCAGCCUCCUCGCUGGCUCCGGCUGGGCAACAUUCCGAGGGGACCGACCCCUCGGUAAUGGCGAAUGGGACCCA: 0.379; for GGCCGGCAUGGUCCCAGCCUCCUCGCUGGCGCCGGCUGGGCAACAUUCCGAGGGGACCGUCCCCUCGGUAAUGGCAAAUAGGACCCA: 0.585.

In the case of GGCCGGCAUGGUCCCAGCCUCCUCGCUGGCGCCGGCUGGGCAACAUUCCGAGGGGACCGACCCCUCGGUAAUGGCGAAUGGGAACCA, the self-cleavage turned out to be 0.911.

With GGCCGGCAUGGUCCCAGCCUCCUCGCUGGCGCCGGCAGGGCAACAGUCCGAGGGGACCGUCCCCUCGGUAAUGGCGAAUGGGACCCA, the self-cleavage was determined as 0.128. The same measure for GGCCGGCAUGGUGCCAGCCUCCUCGCUGGCGCCGGCUAGGCAACAUUCCGAGGGGACCGUCCCCUCGGUAAUGGCGAAUGGGACCCA: 0.0302; for GGCCGGCAUGGUCCCAGCCUCCUCGCUGGCGCCGGCUGGGCAACAUUCCGAGGGGACCGUCCCCUCGGUAAUGUCGAAUGGGAACCA: 0.475; for GGCCGGCAUGGUCCCAGCCUCCUCGCGGGCGCCGGCUGGGCAAAAUUCCGAGGGGACCGUCCCCUCGGUAAUGGCGAAUGGGACCCA: 0.475. To GGCCGGCAUGGUCCCAGCCUCCUCGCUGGCGCCGGCUGGGUAACAUUCCGAGGGGACCGUCCCCUCGGUAAUGGCGAAUGAGACCCA belongs 0.237.
